Test results: patent US20200024330A1

Tests used:
Assay in all cases: cell-based or functional assay
[1] = target: HIV-1 Env of isolate MGRM-G-006 (HIV-1)
[2] = target: HIV-1 Env of isolate MGRM-Chronic-B-024 (HIV-1)
[3] = target: HIV-1 Env of isolate MGRM-G-011 (HIV-1)
[4] = target: HIV-1 Env of isolate MGRM-Chronic-B-020 (HIV-1)
[5] = target: HIV-1 Env of isolate MGRM-G-017 (HIV-1)
[6] = target: HIV-1 Env of isolate MGRM-G-019 (HIV-1)
[7] = target: HIV-1 Env of isolate MGRM-G-016 (HIV-1)
[8] = target: HIV-1 Env of isolate JRFL (HIV-1)
[9] = target: aMLV envelope (negative control pseudovirus)
[10] = target: HIV-1 Env of isolate MGRM-C-012 (HIV-1)
[11] = target: HIV-1 Env of isolate MGRM-Chronic-B-018 (HIV-1)
[12] = target: HIV-1 Env of isolate MGRM-G-027 (HIV-1)
[13] = target: HIV-1 Env of isolate MGRM-Chronic-B-010 (HIV-1)
[14] = target: HIV-1 Env of isolate MGRM-Chronic-B-023 (HIV-1)
[15] = target: HIV-1 Env of isolate MGRM-G-004 (HIV-1)
[16] = target: HIV-1 Env of isolate MGRM-Chronic-B-011 (HIV-1)
[17] = target: HIV-1 Env of isolate MGRM-G-025 (HIV-1)
[18] = target: HIV-1 Env of isolate MGRM-G-009 (HIV-1)
[19] = target: HIV-1 Env of isolate MGRM-G-001 (HIV-1)
[20] = target: HIV-1 Env of isolate MGRM-Chronic-B-017 (HIV-1)
[21] = target: HIV-1 Env of isolate MGRM-F1-014 (subtype F), on pseudovirus (HIV-1)
[22] = target: HIV-1 Env of isolate MGRM-Chronic-B-012 (HIV-1)
[23] = target: HIV-1 Env of isolate MGRM-G-013 (HIV-1)
[24] = target: HIV-1 Env of isolate MGRM-G-015 (HIV-1)
[25] = target: HIV-1 Env of isolate MGRM-G-014 (HIV-1)
[26] = target: HIV-1 92BR020 envelope glycoprotein (Env) on pseudovirus (HIV-1)
[27] = target: HIV-1 Env of isolate MGRM-AE-006 (HIV-1)
[28] = target: HIV-1 92UG024 envelope glycoprotein (Env) on pseudovirus (HIV-1)
[29] = target: HIV-1 Env of isolate MGRM-AE-007 (HIV-1)
[30] = target: HIV-1 92TH021 envelope glycoprotein (Env) on pseudovirus (HIV-1)
[31] = target: HIV-1 NL43 envelope glycoprotein (Env) on pseudovirus (HIV-1)
[32] = target: HIV-1 Env of isolate MGRM-C-028 (pseudovirus) (HIV-1 isolate MGRM-C-028, subtype C)
[33] = target: HIV-1 Env of isolate MGRM-AE-008 (HIV-1)
[34] = target: HIV-1 Env of isolate MGRM-AE-005 (HIV-1)
[35] = target: HIV-1 92RW020 envelope glycoprotein (Env) on pseudovirus (HIV-1)
[36] = target: HIV-1 Env of isolate MGRM-AE-004 (HIV-1)

Chain of 5345_I01 (PGT-137) (antibody) (VH): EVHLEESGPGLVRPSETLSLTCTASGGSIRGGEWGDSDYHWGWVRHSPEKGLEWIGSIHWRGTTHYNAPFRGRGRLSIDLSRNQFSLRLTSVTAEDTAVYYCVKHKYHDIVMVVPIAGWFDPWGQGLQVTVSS
Chain of 5345_I01 (PGT-137) (antibody) (VL): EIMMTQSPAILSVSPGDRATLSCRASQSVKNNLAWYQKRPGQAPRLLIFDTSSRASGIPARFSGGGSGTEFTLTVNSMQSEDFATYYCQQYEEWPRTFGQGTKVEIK
Chain of 5329_C19 (PGT-136) (antibody) (VH): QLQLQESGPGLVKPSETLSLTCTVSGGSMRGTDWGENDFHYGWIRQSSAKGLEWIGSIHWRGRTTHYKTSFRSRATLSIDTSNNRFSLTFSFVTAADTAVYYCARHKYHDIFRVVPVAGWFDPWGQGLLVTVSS
Chain of 5329_C19 (PGT-136) (antibody) (VL): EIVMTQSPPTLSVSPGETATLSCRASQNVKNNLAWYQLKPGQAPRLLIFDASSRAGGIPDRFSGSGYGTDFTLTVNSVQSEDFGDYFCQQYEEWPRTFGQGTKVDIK

Substance: 5114_A19 (PGT-128) (antibody)
- IC50, pseudovirus neutralization [1]: > 50 µg/mL
- IC50 [2]: > 50 µg/mL
- IC50, pseudovirus neutralization [3]: 8.21 µg/mL
- IC50 [4]: 0.007 µg/mL
- IC50, pseudovirus neutralization [5]: 0.319 µg/mL
- IC50, pseudovirus neutralization [6]: 0.01 µg/mL
- IC50, pseudovirus neutralization [7]: > 50 µg/mL
- IC50 [8]: 0.007 µg/mL
- IC50, pseudovirus neutralization [9]: > 50 µg/mL
- IC50 [10]: 0.058 µg/mL
- IC50 [11]: 0.02 µg/mL
- IC50, pseudovirus neutralization [12]: 0.313 µg/mL
- IC50 [13]: 0.004 µg/mL
- IC50 [14]: > 50 µg/mL
- IC50, pseudovirus neutralization [15]: > 50 µg/mL
- IC50 [16]: 0.02 µg/mL
- IC50, pseudovirus neutralization [17]: 0.017 µg/mL
- IC50, pseudovirus neutralization [18]: > 50 µg/mL
- IC50, pseudovirus neutralization [19]: 0.019 µg/mL
- IC50 [20]: > 50 µg/mL
- IC50, pseudovirus neutralization [21]: 0.277 µg/mL
- IC50 [22]: 0.026 µg/mL
- IC50, pseudovirus neutralization [23]: 0.995 µg/mL
- IC50, pseudovirus neutralization [24]: > 50 µg/mL
- IC50, pseudovirus neutralization [25]: 0.004 µg/mL

Substance: 5136_H01 (PGT-131) (antibody)
- IC50, pseudovirus neutralization [1]: > 50 µg/mL
- IC50 [2]: > 50 µg/mL
- IC50, pseudovirus neutralization [3]: > 50 µg/mL
- IC50 [4]: 0.053 µg/mL
- IC50, pseudovirus neutralization [5]: > 50 µg/mL
- IC50, pseudovirus neutralization [6]: > 50 µg/mL
- IC50, pseudovirus neutralization [7]: > 50 µg/mL
- IC50 [8]: 0.454 µg/mL
- IC50, pseudovirus neutralization [9]: > 50 µg/mL
- IC50 [10]: > 50 µg/mL
- IC50 [11]: > 50 µg/mL
- IC50, pseudovirus neutralization [12]: 2.9 µg/mL
- IC50 [13]: 0.016 µg/mL
- IC50 [14]: > 50 µg/mL
- IC50, pseudovirus neutralization [15]: > 50 µg/mL
- IC50 [16]: 6.47 µg/mL
- IC50, pseudovirus neutralization [17]: 7.75 µg/mL
- IC50, pseudovirus neutralization [18]: > 50 µg/mL
- IC50, pseudovirus neutralization [19]: 0.404 µg/mL
- IC50 [20]: > 50 µg/mL
- IC50, pseudovirus neutralization [21]: > 50 µg/mL
- IC50 [22]: 15.7 µg/mL
- IC50, pseudovirus neutralization [23]: > 50 µg/mL
- IC50, pseudovirus neutralization [24]: > 50 µg/mL
- IC50, pseudovirus neutralization [25]: 4.31 µg/mL

Substance: 5141_B17 (PGT-126) (antibody)
- IC50, pseudovirus neutralization [1]: > 50 µg/mL
- IC50 (ug/ml), neutralizing activity [26]: 0.0163 µg/mL
- neutralization IC50 [27]: 17.3 µg/mL
- IC50, pseudovirus neutralization [3]: 7.32 µg/mL
- IC50, pseudovirus neutralization [5]: > 50 µg/mL
- IC50, pseudovirus neutralization [6]: 0.018 µg/mL
- IC50, pseudovirus neutralization [7]: > 50 µg/mL
- IC50 (ug/ml), neutralizing activity [28]: > 10 µg/mL
- neutralization IC50 [29]: > 50 µg/mL
- IC50 [9]: > 10 µg/mL
- IC50, pseudovirus neutralization [9]: > 50 µg/mL
- IC80 [9]: > 10 µg/mL
- IC90 [9]: > 10 µg/mL
- IC95 [9]: > 10 µg/mL
- IC50 (ug/ml), neutralizing activity [30]: 0.115 µg/mL
- IC50, pseudovirus neutralization [12]: 0.875 µg/mL
- IC50, pseudovirus neutralization [15]: > 50 µg/mL
- IC50, pseudovirus neutralization [17]: 17.1 µg/mL
- IC50, pseudovirus neutralization [18]: > 50 µg/mL
- IC50 (ug/ml), neutralizing activity [31]: > 10 µg/mL
- IC50, pseudovirus neutralization [19]: 0.038 µg/mL
- IC50 (µg/mL) neutralization [32]: 0.196 µg/mL
- neutralization IC50 [33]: > 50 µg/mL
- neutralization IC50 [34]: 0.324 µg/mL
- IC50 (ug/ml), neutralizing activity [35]: 0.0046 µg/mL
- IC50, pseudovirus neutralization [23]: 48.8 µg/mL
- neutralization IC50 [36]: > 50 µg/mL
- IC50, pseudovirus neutralization [24]: > 50 µg/mL
- IC50, pseudovirus neutralization [25]: 0.009 µg/mL

Substance: 5329_C19 (PGT-136) (antibody)
- IC50, pseudovirus neutralization [1]: > 50 µg/mL
- IC50 [2]: > 50 µg/mL
- IC50 (ug/ml), neutralizing activity [26]: > 10 µg/mL
- IC50, pseudovirus neutralization [3]: > 50 µg/mL
- IC50 [4]: > 50 µg/mL
- IC50, pseudovirus neutralization [5]: > 50 µg/mL
- IC50, pseudovirus neutralization [6]: 44.3 µg/mL
- IC50, pseudovirus neutralization [7]: > 50 µg/mL
- IC50 [8]: > 50 µg/mL
- IC50, pseudovirus neutralization [9]: > 50 µg/mL
- IC50 [10]: > 50 µg/mL
- IC50 [11]: > 50 µg/mL
- IC50, pseudovirus neutralization [12]: 45.2 µg/mL
- IC50 [13]: > 50 µg/mL
- IC50 [14]: > 50 µg/mL
- IC50, pseudovirus neutralization [15]: > 50 µg/mL
- IC50 [16]: > 50 µg/mL
- IC50, pseudovirus neutralization [17]: > 50 µg/mL
- IC50, pseudovirus neutralization [18]: > 50 µg/mL
- IC50, pseudovirus neutralization [19]: 8.11 µg/mL
- IC50 [20]: > 50 µg/mL
- IC50, pseudovirus neutralization [21]: > 50 µg/mL
- IC50 [22]: 43.1 µg/mL
- IC50 (ug/ml), neutralizing activity [35]: 0.738 µg/mL
- IC50, pseudovirus neutralization [23]: > 50 µg/mL
- IC50, pseudovirus neutralization [24]: > 50 µg/mL
- IC50, pseudovirus neutralization [25]: > 50 µg/mL

Substance: 5343_B08 (PGT-135) (antibody)
- IC50, pseudovirus neutralization [1]: > 50 µg/mL
- IC50 [2]: > 50 µg/mL
- IC50 (ug/ml), neutralizing activity [26]: 0.104 µg/mL
- IC50, pseudovirus neutralization [3]: > 50 µg/mL
- IC50 [4]: 0.057 µg/mL
- IC50, pseudovirus neutralization [5]: 0.137 µg/mL
- IC50, pseudovirus neutralization [6]: 0.145 µg/mL
- IC50, pseudovirus neutralization [7]: > 50 µg/mL
- IC50 [8]: > 50 µg/mL
- IC50, pseudovirus neutralization [9]: > 50 µg/mL
- IC50 [10]: 0.017 µg/mL
- IC50 [11]: > 50 µg/mL
- IC50, pseudovirus neutralization [12]: 0.062 µg/mL
- IC50 [13]: > 50 µg/mL
- IC50 [14]: 0.329 µg/mL
- IC50, pseudovirus neutralization [15]: > 50 µg/mL
- IC50 [16]: > 50 µg/mL
- IC50, pseudovirus neutralization [17]: 0.592 µg/mL
- IC50, pseudovirus neutralization [18]: > 50 µg/mL
- IC50, pseudovirus neutralization [19]: 0.393 µg/mL
- IC50 [20]: > 50 µg/mL
- IC50, pseudovirus neutralization [21]: > 50 µg/mL
- IC50 [22]: 0.166 µg/mL
- IC50 (ug/ml), neutralizing activity [35]: 0.157 µg/mL
- IC50, pseudovirus neutralization [23]: > 50 µg/mL
- IC50, pseudovirus neutralization [24]: > 50 µg/mL
- IC50, pseudovirus neutralization [25]: > 50 µg/mL

Substance: 5345_I01 (PGT-137) (antibody)
- IC50, pseudovirus neutralization [1]: > 50 µg/mL
- IC50 [2]: > 50 µg/mL
- IC50, pseudovirus neutralization [3]: > 50 µg/mL
- IC50 [4]: 32.9 µg/mL
- IC50, pseudovirus neutralization [5]: 34.9 µg/mL
- IC50, pseudovirus neutralization [6]: 0.126 µg/mL
- IC50, pseudovirus neutralization [7]: > 50 µg/mL
- IC50 [8]: > 50 µg/mL
- IC50, pseudovirus neutralization [9]: > 50 µg/mL
- IC50 [10]: 0.102 µg/mL
- IC50 [11]: > 50 µg/mL
- IC50, pseudovirus neutralization [12]: 0.228 µg/mL
- IC50 [13]: > 50 µg/mL
- IC50 [14]: > 50 µg/mL
- IC50, pseudovirus neutralization [15]: > 50 µg/mL
- IC50 [16]: > 50 µg/mL
- IC50, pseudovirus neutralization [17]: > 50 µg/mL
- IC50, pseudovirus neutralization [18]: > 50 µg/mL
- IC50, pseudovirus neutralization [19]: 41.7 µg/mL
- IC50 [20]: > 50 µg/mL
- IC50, pseudovirus neutralization [21]: > 50 µg/mL
- IC50 [22]: > 50 µg/mL
- IC50, pseudovirus neutralization [23]: > 50 µg/mL
- IC50, pseudovirus neutralization [24]: > 50 µg/mL
- IC50, pseudovirus neutralization [25]: > 50 µg/mL
